As a reminder, the Kd is the constant that tells how readily two partners part at equilibrium.

The text below walks through data of article PMC9601868.

Experiment [1] addresses ZFP932 KRAB domain (5–76), AviTagged, monobiotinylated (murine). As to the kind of experiment: SPR; Biacore X100, Sensor Chip CAP; monobiotinylated KRAB domain immobilised; concentration series of Trim28 RBCC, 60 s injections; 10 mM TRIS/HCl pH 8.0, 300 mM NaCl, 0.1 mM TCEP, 0.005% tween 20; equilibrium analysis. Background: In SPR one partner is held on a chip, and binding of the other changes the refractive index at the surface.

The target is the same in experiment [2]. The experiment is described as follows: SPR; Biacore X100, Sensor Chip CAP; monobiotinylated KRAB domain immobilised (~100 RU); 1 μM Trim28 RBCC injected 60 s, 600 s wash; 10 mM TRIS/HCl pH 8.0, 300 mM NaCl, 0.1 mM TCEP, 0.005% tween 20; kinetic analysis, two-state reaction model.

Chain of ZFP932 KRAB domain (5–76), AviTagged, monobiotinylated (murine) (E9QAG8 5-76): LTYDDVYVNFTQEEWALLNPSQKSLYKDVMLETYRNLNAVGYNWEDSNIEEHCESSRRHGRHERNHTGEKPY

“Trim28 RBCC (58–418) L301A (from UniProt Q62318 58-418) (domain or fragment)” had a Kd in experiment [1] of 6500 nM.

In the case of “Trim28 RBCC (58–418) V294S (from UniProt Q62318 58-418) (domain or fragment)”, the equilibrium dissociation constant (Kd) in experiment [2] amounted to 319 nM. On to “Trim28 RBCC (58–418) K305E (from UniProt Q62318 58-418) (domain or fragment)”, for which the Kd in experiment [1] is 15900 nM.

For “Trim28 RBCC (58–418) L301S (from UniProt Q62318 58-418) (domain or fragment)”, the dissociation constant Kd in experiment [1] was 30800 nM.

“Trim28 RBCC (58–418), wild type (from UniProt Q62318 58-418) (domain or fragment)” yielded a Kd in experiment [2] of 14.6 nM. “Trim28 RBCC (58–418) K305A (from UniProt Q62318 58-418) (domain or fragment)” returned a Kd in experiment [2] of 31.1 nM. Still for that read-out and setting: for “Trim28 RBCC (58–418) M304A (from UniProt Q62318 58-418) (domain or fragment)” the value was 24.2 nM; for “Trim28 RBCC (58–418) M298S (from UniProt Q62318 58-418) (domain or fragment)”, 671 nM; for “Trim28 RBCC (58–418) M298A (from UniProt Q62318 58-418) (domain or fragment)”, 324 nM. On the same count and under the same terms, as for “Trim28 RBCC (58–418) K290A (from UniProt Q62318 58-418) (domain or fragment)”, the figure is 37.3 nM. The same measure, in the same setting: for “Trim28 RBCC (58–418) I300A (from UniProt Q62318 58-418) (domain or fragment)” the value was 26.3 nM; for “Trim28 RBCC (58–418) K297A (from UniProt Q62318 58-418) (domain or fragment)”, 54.1 nM. In the case of “Trim28 RBCC (58–418) K290E (from UniProt Q62318 58-418) (domain or fragment)”, the dissociation constant (Kd) in experiment [2] was 132 nM. Take “Trim28 RBCC (58–418) M304S (from UniProt Q62318 58-418) (domain or fragment)”: in experiment [2], the equilibrium dissociation constant (Kd) was 20.3 nM. For the substance “Trim28 RBCC (58–418) V294A (from UniProt Q62318 58-418) (domain or fragment)”, the equilibrium dissociation constant (Kd) in experiment [2] was 113 nM. “Trim28 RBCC (58–418) R312A (from UniProt Q62318 58-418) (domain or fragment)” registered a Kd in experiment [2] of 27.8 nM. Still for that read-out and setting: as for “Trim28 RBCC (58–418) R312E (from UniProt Q62318 58-418) (domain or fragment)”, the figure is 212 nM; as for “Trim28 RBCC (58–418) I300S (from UniProt Q62318 58-418) (domain or fragment)”, 35.8 nM.
